Experimental data: PMC8980211 (2022)

Target: SARS-CoV-2 RBD protein (immobilised in SPR) (SARS-CoV-2, UniProt P0DTC2 319-541)
Test: SPR

B1: mAb 35B5 (antibody, V domains shown)
VH: QVQLLESGGGLVQPGRSLRLSCAASGFTFDDYAMHWVRQAPGKGLEWVSGVSWNSGTIGYADSVKGRFTISRDNAKNSLYLHMRSLRAEDTALYYCAKAVEMVRGLMGLGADPEYGMDVWGQGTTVTVSS
VL: not shown
koff: 5.49e-06 s⁻¹
